Consider one substance from PMC3634583.

Data set [1] can be described thus: Western blot of 293T lysate, 8 kDa BNP form. As to conditions: glycan lost; control: wild-type pre-proBNP. For orientation: A western blot detects proteins with antibodies after separation by electrophoresis.
A short description of data set [2]: Western blot. As to conditions: glycan lost; control: wild-type pre-proBNP.

“proBNP1-108 (pro-B-type natriuretic peptide): T71A”: the “other: proteolytic processing” value in data set [1] and in data set [2] was “increases” each time.
